# In paper PMC10632352, “Nde1 promotes Lis1-mediated activation of dynein” (Nature Communications, 2023):
# Where a chain is given by its changes, count along the chain named. In names and notes the source's numbering stands.
# T1: Lis1^39–410 (human, UniProt P43034 39-410)
# T1 sequence (looked up): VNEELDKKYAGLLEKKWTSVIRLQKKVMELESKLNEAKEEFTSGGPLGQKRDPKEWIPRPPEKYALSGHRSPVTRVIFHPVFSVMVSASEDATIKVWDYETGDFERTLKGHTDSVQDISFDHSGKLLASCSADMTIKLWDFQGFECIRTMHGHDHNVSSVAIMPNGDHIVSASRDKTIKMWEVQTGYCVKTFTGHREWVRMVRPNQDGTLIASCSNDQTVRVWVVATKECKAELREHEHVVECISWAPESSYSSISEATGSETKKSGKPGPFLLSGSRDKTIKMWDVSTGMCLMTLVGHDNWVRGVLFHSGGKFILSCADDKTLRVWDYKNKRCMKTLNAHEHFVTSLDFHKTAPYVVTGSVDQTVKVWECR
# B1: Nde1^E118A/R129A (Lis1 binding mutant of Nde1), Q9NXR1 1-335 (natural protein)
# chain: MEDSGKTFSSEEEEANYWKDLAMTYKQRAENTQEELREFQEGSREYEAELETQLQQIETRNRDLLSENNRLRMELETIKEKFEVQHSEGYRQISALEDDLAQTKAIKDQLQKYIRELAQANDDLERAKAATIMSLEDFEQRLNQAIERNAFLESELDEKENLLESVQRLKDEARDLRQELAVQQKQEKPRTPMPSSVEAERTDTAVQATGSVPSTPIAHRGPSSSLNTPGSFRRGLDDSTGGTPLTPAARISALNIVGDLLRKVGALESKLASCRNLVYDQSPNRTGGPASGRSSKNRDGGERRPSSTSVPLGDKGLDTSCRWLSKSTTRSSSSC
# modifications: here or on the partner: a fluorescent dye in the colocalization assays; LD655, or Alexa488 and biotin, where labelled
# B2: Nde1^E118K/R129E (Lis1 binding mutant of Nde1), Q9NXR1 1-335 (natural protein)
# chain: B1 chain with A118K, A129E
# modifications: here or on the partner: a fluorescent dye in the colocalization assays; LD655, or Alexa488 and biotin, where labelled
# B3: human Nde1 (natural protein, UniProt Q9NXR1 1-335, looked up)
# chain: B1 chain with A118E, A129R
# modifications: LD655 or LD555 dye where labelled
# notes: Nde1, human; Labelled through a SNAP or a ybbR tag; also called full-length Nde1; WT Nde1; source: Sf9 (baculovirus, pOmniBac), purified (IgG Sepharose, TEV elution, Superdex 200 Increase SEC)
# B4: Nde1^E47K (DIC binding mutant of Nde1) (natural protein, human, UniProt Q9NXR1 1-335, looked up)
# chain: B1 chain with E47K, A118E, A129R
# modifications: a fluorescent dye in the colocalization assays
# notes: Nde1, human, with E47K; Probably in full-length Nde1; source: Sf9 (baculovirus, pOmniBac), purified (IgG Sepharose, TEV elution, SEC)
# B5: Nde1^E118A/R129A (Lis1 binding mutant of Nde1) (natural protein, human, UniProt Q9NXR1 1-335, looked up)
# chain: B1 chain
# modifications: a fluorescent dye in the colocalization assays
# notes: Nde1, human, with E118A and R129A; Probably in full-length Nde1; source: Sf9 (baculovirus, pOmniBac), purified (IgG Sepharose, TEV elution, SEC)
# B6: Nde1^E118K/R129E (Lis1 binding mutant of Nde1) (natural protein, human, UniProt Q9NXR1 1-335, looked up)
# chain: B1 chain with A118K, A129E
# modifications: a fluorescent dye in the colocalization assays
# notes: Nde1, human, with E118K and R129E; Probably in full-length Nde1; source: Sf9 (baculovirus, pOmniBac), purified (IgG Sepharose, TEV elution, SEC)
# B7: Nde1^E47A (DIC binding mutant of Nde1) (natural protein, human, UniProt Q9NXR1 1-335, looked up)
# chain: B1 chain with E47A, A118E, A129R
# modifications: a fluorescent dye in the colocalization assays
# notes: Nde1, human, with E47A; Probably in full-length Nde1; source: Sf9 (baculovirus, pOmniBac), purified (IgG Sepharose, TEV elution, SEC)
# B8: human Lis1 (natural protein, UniProt P43034 1-410, looked up)
# chain: MVLSQRQRDELNRAIADYLRSNGYEEAYSVFKKEAELDVNEELDKKYAGLLEKKWTSVIRLQKKVMELESKLNEAKEEFTSGGPLGQKRDPKEWIPRPPEKYALSGHRSPVTRVIFHPVFSVMVSASEDATIKVWDYETGDFERTLKGHTDSVQDISFDHSGKLLASCSADMTIKLWDFQGFECIRTMHGHDHNVSSVAIMPNGDHIVSASRDKTIKMWEVQTGYCVKTFTGHREWVRMVRPNQDGTLIASCSNDQTVRVWVVATKECKAELREHEHVVECISWAPESSYSSISEATGSETKKSGKPGPFLLSGSRDKTIKMWDVSTGMCLMTLVGHDNWVRGVLFHSGGKFILSCADDKTLRVWDYKNKRCMKTLNAHEHFVTSLDFHKTAPYVVTGSVDQTVKVWECR
# modifications: benzylguanine dyes on the SNAP tag, by experiment: LD555, LD655, or Alexa488 and biotin
# notes: Lis1 (noncatalytic beta subunit of PAF-AH1B), human; Homodimer by mass photometry; also called full-length Lis1; SNAP-Lis1; source: Sf9 (baculovirus, pOmniBac), purified (IgG Sepharose, TEV elution, Superdex 200 Increase SEC)
# B9: mtLis1 (dynein-binding mutant of Lis1, R316A and W340A) (natural protein, human, UniProt P43034 1-410, looked up)
# chain: B8 chain with R316A, W340A
# modifications: LD555, or Alexa488 and biotin, on the SNAP tag in the colocalization assays
# notes: Lis1, human, with R316A and W340A on the beta-propeller domain; forms a dimer like Lis1; source: Sf9 (baculovirus, pOmniBac), purified (IgG Sepharose, TEV elution, SEC)
# B10: Nde1^1–190 (N-terminus of human Nde1) (domain or fragment, UniProt Q9NXR1 1-190, looked up)
# chain: MEDSGKTFSSEEEEANYWKDLAMTYKQRAENTQEELREFQEGSREYEAELETQLQQIETRNRDLLSENNRLRMELETIKEKFEVQHSEGYRQISALEDDLAQTKAIKDQLQKYIRELEQANDDLERAKRATIMSLEDFEQRLNQAIERNAFLESELDEKENLLESVQRLKDEARDLRQELAVQQKQEKPR
# modifications: LD555 dye in the analytical SEC
# notes: Nde1, human, N-terminal coiled-coil, residues 1-190 (C-terminus truncated); also called Nde1^1–190-LD555; source: Sf9 (baculovirus, pOmniBac), purified (IgG Sepharose, TEV elution, Superdex 200 Increase SEC)
# What was measured:
# WT dynein-GFP (human) = WT dynein-GFP (human) (UniProt Q14204); test: real-time TIRF of the initiation of DDR motility; microtubules decorated with WT dynein-GFP and Nde1-LD655 in the absence of Lis1; dynactin and BicDR1 (one of them LD555-labelled) flown in during imaging
# [1] = biological target: dynein mutant unable to attain the phi conformation (mtDyn) (human) (UniProt Q14204); test: single-molecule colocalization (TIRF); dynein (Alexa488 and biotin on its SNAP tag, 0.2 nM) immobilised on streptavidin / biotin-PEG glass; labelled prey in MB buffer (30 mM HEPES pH 7.0, 5 mM MgSO4, 1 mM EGTA, casein, pluronic, DTT, Taxol), 10 min, unbound prey not washed away; third proteins added
# [2] = biological target: wild-type human dynein (cytoplasmic dynein-1 complex) (human) (UniProt Q14204); test: as above
# [3] = biological target: dynein mutant unable to attain the phi conformation (mtDyn) (human), Q14204
# [4] = biological target: wild-type human dynein (cytoplasmic dynein-1 complex) (human) (UniProt Q14204); test: single-molecule colocalization (TIRF); dynein (Alexa488 and biotin on its SNAP tag, 0.2 nM) immobilised on streptavidin / biotin-PEG glass; labelled prey in MB buffer (30 mM HEPES pH 7.0, 5 mM MgSO4, 1 mM EGTA, casein, pluronic, DTT, Taxol), 10 min, unbound prey not washed away; third proteins added; remark: listed apart in the source
# human Lis1 = biological target: B8; test: cell-based or functional assay
# Lis1^39–410 = biological target: T1, Lis1^39–410; test: cell-based or functional assay
# [5] = biological target: the molecule itself; test: mass photometry; proteins diluted to 5–20 nM in 30 mM HEPES pH 7.4, 5 mM MgSO4, 1 mM EGTA, 10% glycerol; Refeyn TwoMP; profiles fitted to multiple Gaussians
# [6] = biological target: dynein mutant unable to attain the phi conformation (mtDyn) (human) (UniProt Q14204)
# [7] = biological target: dynein-dynactin-BicDR1 complex assembled with wild-type human dynein (wtDDR) (human | pig | mouse) (UniProt Q14204); test: three-color TIRF comigration on microtubules; 100 nM BicDR1-mNG, 10 nM LD555-Lis1 and 10 nM LD655-Nde1 preincubated with the DDR components; processive runs on surface-immobilised microtubules
# Chain of dynein-dynactin-BicDR1 complex assembled with wild-type human dynein (wtDDR) (human | pig | mouse) (Q14204 whole entry, looked up, one chain of several): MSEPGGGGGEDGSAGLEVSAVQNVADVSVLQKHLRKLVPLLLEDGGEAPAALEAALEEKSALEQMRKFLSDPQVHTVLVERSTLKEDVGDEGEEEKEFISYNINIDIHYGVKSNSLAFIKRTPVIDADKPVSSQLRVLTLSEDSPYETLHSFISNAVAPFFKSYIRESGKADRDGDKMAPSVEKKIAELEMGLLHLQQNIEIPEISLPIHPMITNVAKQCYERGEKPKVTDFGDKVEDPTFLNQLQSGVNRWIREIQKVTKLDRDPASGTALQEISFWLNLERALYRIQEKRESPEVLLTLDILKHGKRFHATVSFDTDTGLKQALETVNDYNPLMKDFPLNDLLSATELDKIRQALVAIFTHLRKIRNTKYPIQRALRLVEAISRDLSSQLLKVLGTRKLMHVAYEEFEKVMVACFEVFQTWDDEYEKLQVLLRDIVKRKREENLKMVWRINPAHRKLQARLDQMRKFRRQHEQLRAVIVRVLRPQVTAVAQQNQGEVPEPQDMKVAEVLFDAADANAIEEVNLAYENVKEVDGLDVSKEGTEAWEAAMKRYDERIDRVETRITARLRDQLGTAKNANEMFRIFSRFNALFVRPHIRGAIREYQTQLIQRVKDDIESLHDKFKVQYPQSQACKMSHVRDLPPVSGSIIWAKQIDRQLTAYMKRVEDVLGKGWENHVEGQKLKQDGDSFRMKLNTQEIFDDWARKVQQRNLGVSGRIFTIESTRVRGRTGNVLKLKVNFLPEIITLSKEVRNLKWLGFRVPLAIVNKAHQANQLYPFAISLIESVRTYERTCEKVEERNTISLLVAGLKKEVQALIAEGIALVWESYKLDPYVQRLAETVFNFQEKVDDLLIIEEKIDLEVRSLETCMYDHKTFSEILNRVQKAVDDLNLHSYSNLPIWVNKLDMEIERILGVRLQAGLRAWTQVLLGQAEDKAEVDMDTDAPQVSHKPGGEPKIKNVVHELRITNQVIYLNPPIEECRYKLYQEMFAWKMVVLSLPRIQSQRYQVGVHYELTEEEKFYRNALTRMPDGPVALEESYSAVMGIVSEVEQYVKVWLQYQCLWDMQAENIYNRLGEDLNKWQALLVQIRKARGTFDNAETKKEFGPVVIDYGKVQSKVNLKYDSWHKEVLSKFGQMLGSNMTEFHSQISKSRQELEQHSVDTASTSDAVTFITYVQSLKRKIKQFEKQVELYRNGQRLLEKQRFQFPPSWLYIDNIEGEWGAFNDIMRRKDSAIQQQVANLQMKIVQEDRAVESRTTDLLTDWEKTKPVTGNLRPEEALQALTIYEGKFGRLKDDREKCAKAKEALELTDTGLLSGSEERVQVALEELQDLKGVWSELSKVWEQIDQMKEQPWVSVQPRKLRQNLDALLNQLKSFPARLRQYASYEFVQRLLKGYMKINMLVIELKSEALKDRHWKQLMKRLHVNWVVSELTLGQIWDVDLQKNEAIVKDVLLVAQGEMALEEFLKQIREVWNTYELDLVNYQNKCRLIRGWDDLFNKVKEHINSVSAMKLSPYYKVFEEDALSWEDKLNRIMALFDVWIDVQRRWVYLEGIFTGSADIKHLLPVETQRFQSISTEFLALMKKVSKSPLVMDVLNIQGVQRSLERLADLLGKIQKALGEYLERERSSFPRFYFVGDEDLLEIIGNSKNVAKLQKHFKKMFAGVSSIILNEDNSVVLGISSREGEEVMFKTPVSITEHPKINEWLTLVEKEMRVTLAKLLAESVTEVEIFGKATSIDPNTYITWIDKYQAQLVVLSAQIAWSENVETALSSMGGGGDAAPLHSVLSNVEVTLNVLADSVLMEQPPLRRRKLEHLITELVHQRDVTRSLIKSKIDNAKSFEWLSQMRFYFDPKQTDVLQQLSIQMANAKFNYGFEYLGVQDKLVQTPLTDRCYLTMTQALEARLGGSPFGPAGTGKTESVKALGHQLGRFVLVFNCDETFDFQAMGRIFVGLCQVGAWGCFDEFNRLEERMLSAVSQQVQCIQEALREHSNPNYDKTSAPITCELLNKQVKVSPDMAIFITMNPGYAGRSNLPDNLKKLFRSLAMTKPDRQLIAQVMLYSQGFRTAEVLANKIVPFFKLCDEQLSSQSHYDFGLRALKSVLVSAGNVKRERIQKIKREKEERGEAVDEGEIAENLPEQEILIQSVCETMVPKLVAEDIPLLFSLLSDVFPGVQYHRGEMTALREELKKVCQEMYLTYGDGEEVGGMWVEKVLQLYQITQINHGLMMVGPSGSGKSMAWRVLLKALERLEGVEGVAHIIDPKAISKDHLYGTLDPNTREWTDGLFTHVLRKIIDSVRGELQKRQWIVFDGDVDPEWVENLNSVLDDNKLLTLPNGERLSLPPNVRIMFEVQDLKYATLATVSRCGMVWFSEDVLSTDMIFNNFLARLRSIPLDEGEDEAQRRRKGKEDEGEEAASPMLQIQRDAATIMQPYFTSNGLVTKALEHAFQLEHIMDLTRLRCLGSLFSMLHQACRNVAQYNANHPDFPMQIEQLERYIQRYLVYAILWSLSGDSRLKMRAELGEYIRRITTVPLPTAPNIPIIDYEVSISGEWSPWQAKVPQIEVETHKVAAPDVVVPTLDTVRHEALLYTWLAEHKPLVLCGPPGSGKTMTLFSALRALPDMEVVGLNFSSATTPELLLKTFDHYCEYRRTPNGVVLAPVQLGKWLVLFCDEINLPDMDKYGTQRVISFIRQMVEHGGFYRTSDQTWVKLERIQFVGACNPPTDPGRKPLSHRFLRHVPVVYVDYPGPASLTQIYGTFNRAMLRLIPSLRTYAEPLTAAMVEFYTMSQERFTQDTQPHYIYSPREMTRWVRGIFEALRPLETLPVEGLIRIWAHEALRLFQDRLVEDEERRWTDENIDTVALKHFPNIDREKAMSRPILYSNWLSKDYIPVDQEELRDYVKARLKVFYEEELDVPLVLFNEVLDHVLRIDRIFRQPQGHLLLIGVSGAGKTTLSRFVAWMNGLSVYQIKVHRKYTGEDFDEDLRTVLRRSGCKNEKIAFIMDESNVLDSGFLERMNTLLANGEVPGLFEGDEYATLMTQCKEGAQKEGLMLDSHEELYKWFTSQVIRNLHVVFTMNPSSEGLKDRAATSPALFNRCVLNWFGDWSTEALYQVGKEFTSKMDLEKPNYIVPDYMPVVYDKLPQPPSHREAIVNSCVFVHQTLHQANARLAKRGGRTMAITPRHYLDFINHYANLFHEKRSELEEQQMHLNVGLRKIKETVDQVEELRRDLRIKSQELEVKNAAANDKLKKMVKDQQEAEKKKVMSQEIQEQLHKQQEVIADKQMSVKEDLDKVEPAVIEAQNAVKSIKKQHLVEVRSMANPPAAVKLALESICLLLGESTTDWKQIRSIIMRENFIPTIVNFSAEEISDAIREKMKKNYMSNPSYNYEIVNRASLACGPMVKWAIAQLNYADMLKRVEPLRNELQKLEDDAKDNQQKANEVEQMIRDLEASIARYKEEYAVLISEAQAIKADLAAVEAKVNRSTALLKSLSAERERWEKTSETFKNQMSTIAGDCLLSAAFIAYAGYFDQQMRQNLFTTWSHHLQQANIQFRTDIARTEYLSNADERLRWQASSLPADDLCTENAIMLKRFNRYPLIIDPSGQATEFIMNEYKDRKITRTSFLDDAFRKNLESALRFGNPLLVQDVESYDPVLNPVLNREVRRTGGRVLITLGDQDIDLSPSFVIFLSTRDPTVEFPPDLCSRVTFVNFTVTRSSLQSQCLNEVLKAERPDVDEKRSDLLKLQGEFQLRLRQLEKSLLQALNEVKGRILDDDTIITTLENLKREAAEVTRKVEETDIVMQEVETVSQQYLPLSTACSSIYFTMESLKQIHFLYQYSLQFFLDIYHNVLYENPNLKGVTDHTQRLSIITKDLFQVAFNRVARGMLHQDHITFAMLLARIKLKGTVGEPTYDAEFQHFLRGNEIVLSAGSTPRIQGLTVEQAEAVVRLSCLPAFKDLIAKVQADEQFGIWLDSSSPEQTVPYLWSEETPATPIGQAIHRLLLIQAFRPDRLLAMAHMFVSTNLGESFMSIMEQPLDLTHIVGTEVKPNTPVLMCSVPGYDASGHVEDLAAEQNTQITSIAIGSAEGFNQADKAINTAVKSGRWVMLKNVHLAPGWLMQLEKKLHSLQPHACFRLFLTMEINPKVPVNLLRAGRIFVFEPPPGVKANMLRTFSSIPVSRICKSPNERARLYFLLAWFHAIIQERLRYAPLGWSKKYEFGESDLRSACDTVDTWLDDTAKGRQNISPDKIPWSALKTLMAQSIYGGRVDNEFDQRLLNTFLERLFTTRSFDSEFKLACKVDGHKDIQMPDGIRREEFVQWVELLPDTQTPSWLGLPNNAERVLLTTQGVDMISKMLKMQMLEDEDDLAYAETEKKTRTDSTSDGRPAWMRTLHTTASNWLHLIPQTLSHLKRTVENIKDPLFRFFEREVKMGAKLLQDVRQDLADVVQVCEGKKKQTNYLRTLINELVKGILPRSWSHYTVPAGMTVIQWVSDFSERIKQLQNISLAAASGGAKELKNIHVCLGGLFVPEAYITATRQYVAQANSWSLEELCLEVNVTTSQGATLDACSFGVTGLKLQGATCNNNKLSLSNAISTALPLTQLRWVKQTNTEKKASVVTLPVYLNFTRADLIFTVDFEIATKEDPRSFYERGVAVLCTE
molecule,measurement,setting,value
pig brain dynactin (from UniProt A0A287B8J2 1-1281) (complex),percent of dynein-colocalized Nde1 spots released,WT dynein-GFP (human),96%
same,"percent reduction of Nde1 colocalization to dynein (150 nM dynactin, 25 nM Nde1)",[1],75%
same,"percent reduction of Nde1 colocalization to dynein (150 nM dynactin, 25 nM Nde1)",[2],37%
B1,decrease of the frequency of mtDDR runs with 250 nM Nde1 mutant in the absence of Lis1,[3],50%
B2,decrease of the frequency of mtDDR runs with 250 nM Nde1 mutant in the absence of Lis1,[3],50%
B3,average bound time,[4],21 s
same,average bound time with Lis1 added,[4],42 s
same,wtDDR run frequency on addition of 10 nM Nde1 with full-length Lis1,human Lis1,> 10 fold
same,wtDDR run frequency on addition of 10 nM Nde1 with 100 nM Lis1^39–410,Lis1^39–410,3.2 fold
same,stoichiometry N,[5],2
same,decrease of the frequency of mtDDR runs with 250 nM Nde1 in the absence of Lis1,[6],50%
B4,stoichiometry N,[5],2
B5,stoichiometry N,[5],2
B6,stoichiometry N,[5],2
B7,stoichiometry N,[5],2
B8,average bound time,[4],12 s
same,average bound time with Nde1 added,[4],35 s
same,percent of DDR complexes that co-migrate with Lis1,[7],70%
same,stoichiometry N,[5],2
B9,stoichiometry N,[5],2
B10,stoichiometry N,[5],2
